Laboratory results from the NTF2 design screens of Basanta et al. (2020).

assay: protease stability score; higher = more stable; yeast display proteolysis, trypsin and chymotrypsin;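 further: relative to predicted unfolded state with 0 unfolded-like and 1 meaning tenfold more protease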

Point of comparison: “DEDERNAHRMTQILIRSQETGDEHELMRLLDPHARVIIGDKHIHGWEEFSKLEHEYWERYKNMTLHVRLRHVEVINGVAHIHTHITININGKEDRFEIEIFFLKINGRWVLHSFRVD”, protease stability score 0.799. Against it:
- DESEESMRHALEEIIESMVTGDEDRLRELADPNVRSKVNGRDIHGWKVVSKLVKELRIRDVKVEDKDREVQGEWMYFHGLFRIDGEFDGRRVDLELDLTIIAHKVNGRWVIRMFKYR — higher, 1.63
- DEWKRLALEVLRLWEEFMSTGDEKSVEELADPNVRILYDGVQLHGMDEVRRHLKELREHSHHVEIRRATVIDGRVHVDGTLDVTIEIGDKKIREEIRVKIHIIKVNGKWFVHSVEFR — higher, 1.49
- DDKDELTRTALEIFEYLEITGDWHVVSREADPHVRIVIGDKHLHGMEIFMDLTEELGVDHSSVHSLRSQGDKIDIDIELHQGEKSFRTKVTAEKVDGRWLIKRVLFR — higher, 1.3
- SELSEDLDMYIKIFLRHTETGDEESVRDFADPHAKLEIGDKTFHGRETFLDWFLDLRDRIPNITVRIHEVRIIGDKIHIDLEIIIGEKRTRIHLKIFKVDGVWVLKSLRIN — higher, 1.58
- DEHERLLIKIARIITNLLLTGDEDIMEELADPNVRFELDFNGVDIHLIGMDFWRHNLEHWWVDHFRLEDVKIQGDYAHLKLNVHMEINGRRHETHTRLSIVVVNGKLKSMRFHLI — higher, 1.2
- HEEEKIIEEASKRWLELMQTGDEDKVLHYLDPEYRSEWDGVEIHGRETFRKWLLDLLRKFKGLRFEFRDVRDVGDKVRIIGTVTYDGKVRDTRIDVVIVNGRYKSMEIHFN — higher, 1.69
- DVEEEYRHVMEEVHKHAMKTGDEQDILHLMDPNARFEVDGKIYIGREWLRRFVDILGVSRIHLHDLKIKDYRIIGNKIEVDGNIDGIVGNKRHEIDSHVISEKIDGRWIIKREKHR — lower, 0.324
- DHEREDMRRFVQEVLRVIETGDEDIYMRLLDPHYKVDFNGREIIGREELLRFFRDLGVDRIEADKEDVRSQGDKVITNTHITVNGRRIEMRVIVIKIDGQWVLHSLEFR — higher, 1.2
- SEEEEMARRFTDRLLHFTQTGDERLVHEFVDPNARDDVNGREFHGWRSIHDIMRRLGIDHIRIRHIEVQGDKVRSHWQYVFNGVILEVEINTEKVDGRWLIKSVTFK — higher, 1.14
- DEEERLRHEALKEWLETLVTGDERIIMEQLDPDARIDINGQEIHGMELFAKFMSEMGINVFDLKRTTIQGDKLRIEGVIKFNGKTHRVHVRSTKVDGRWRNKEVRVE — higher, 1.43
- DEEEQHLKKFLKYLKKAIETGDWHKITEMADPNTRLNINGVDNIGWEIISHILMHELEELGLEQIHVHFEHERIQGDKVKLEIHLHIGDKVEHAEMYILKFDGRWRIKRLVRG — higher, 1.93
- DEREKETERMLELFIKVLLTGNEHDLMKLADPHVKLDINGREIHGREHLEEMWRHLWIDDSKRREVRNVGEWSHIYGETDGTFNGKKVRDTVEIRLYIVNGKAHRIYIIER — lower, 0.655
- DEEHRVIHNAVRILLEAIRTGDEETLRRLLDPHTRIEIGDKELHGWKDAIKFERDVWEILGIDHSEIRIKHVRIIGDKIEVEGEIINYVNGKEIVLDTNLIMRKIDGRWVFKSRKVN — higher, 1.23
- DEDEKASKVFVRLIKESIETGDEDTITHLADPNVRVIIGDKELHGWEELSRILHELRIHRFIVRREHVYDGRVQIDGRMDTEINGKKFITEVHVDAIKINGVWWLHLVEIR — higher, 1.38
- DEINKMLKEVLDRYTEAIRTGDEDILLELLDPNTRVIINGQDKHGREYWYTWFAELLKRVDHQDVRFHEIRLQGDKVQVDVELIFNAENHHLHIRTDIIIEKFDGRWIITEFRMH — higher, 1.38
- DELTELAEKAKELFVRIEKTGDEKTWSEYADPDVRIHVNGVDLHGREESLKWMHDLRERIKNMRVEFKDFKIEIIGNKVIIFIDGRLRYDGRELELESVYYVSKFNGRWRVESEELRIR — higher, 1.37
- DKEEKELEELVKLMVELSDTGDWKTFYQLADPHTKLHNLVDGKWDEQHGRENFVEVERKLRERFKGLRVERHDISVQGNKVHVDVILHVNGREMEIDEVFVIINGKLESVEIHVR — higher, 1.19
- SEDTEKIRKFEELLIRLLETGDFDTLTRLLDPHVRYVYNGQDFHGWEFLLHYLRELGVKHFHFRDFRIQGDWAHIDSEVVVGDKHYKTRIVLLKFDGRWRLHMIEVV — higher, 2.44
- DERDEMTDHALQRVHEMLLTGDERLLSELFDPNARSQIGDKHVHGRDEVAKTFTEQLEKLGVDHVHFRSVDIQGEKLIIHMHFRVGDKHFQVIIIIVKVNGRWYWTNMHVILH — higher, 1.1
- DELQKMAKHWIELMIRAQETGDEEELKKYLDPDVRIDVDGRELHGREKADELLKEIRIHEFEIKHMRFQGDKLHLHGTDNQRQGNYEYHVEVTYHLIKINGRWSLREIRVE — lower, 0.637
- SDLEDEFREFLEEWIKHWLTGDEETLFHLADPHAQIDINGREHHGMDEWMHILLKHLKELGARIEIRIEDIRVQGEKTEVDGNLILHINGRRKELKVELIVRVVNGRLKSIEIRIH — higher, 1.02
- DDSEEDALRILELLSDSMETGNWRLVSELLDPHVRLEVGDKTWVGMEEMKRLANQIRIHVHRVKFHHIDNFNGRVRVDGHIHGEIIVGDKIYRFRTRIEIDAVKINGQWVIEEMRIG — higher, 1.61
- SEEEELFEIAIRIFLHILHTGNEEDFHRFADPNMRMIIGDKEHHGWEEVFKWFEFVFRHARIKDTEIKSVRIINGRVHNEGRVNININGVEVIKEVHLVSEKVDGKWVLKRVEIR — higher, 1.52
- DEDTKVVEEILRLLVEIWKTGDEHTWKRLLDPHARMDVDGRELHGREEIARHVKEETEKLGANVHNHVEIHHMEIIGNKVIIDGTVDGIVNGRITRIRVEVFWLVFDGVIKEEEHRVL — higher, 0.955
